Experimental data published in patent US20230074436A1 (DENALI THERAPEUTICS, published 2023).
Changes are numbered by the printed parent chain. Like-named read-outs stand apart in the source and are kept apart here. One block for each binder: values may come before it.

What was measured:
[1] = target: T1, alpha-synuclein peptide 95-140 (human); experiment: ELISA, plate coated with the peptide or protein, antibody titrated, anti-rat HRP, A450
T1 construct: synthetic peptide coated on plate

[2] = target: T2, alpha-synuclein peptide 1-61 (human); experiment: as above
T2 construct: synthetic peptide coated on plate

[3] = target: T1, alpha-synuclein peptide 95-140; experiment: peptide ELISA, coated fragment
[4] = target: T2, alpha-synuclein peptide 1-61; experiment: peptide ELISA
[5] = target: T3, human alpha-synuclein pre-formed fibrils (human, UniProt P37840 1-140); experiment: KinExA kinetic exclusion assay
[6] = target: T4, human alpha-synuclein monomer (human, UniProt P37840 1-140); experiment: KinExA kinetic exclusion assay
[7] = target: T5, human alpha-synuclein oligomers (human, UniProt P37840 1-140); experiment: KinExA kinetic exclusion assay
[8] = target: T4, human alpha-synuclein monomer; experiment: SPR; SPR; aSyn monomers
[9] = target: T4, human alpha-synuclein monomer; experiment: SPR (Biacore 8K), IgG captured on anti-human Fc, aSyn monomer injected
[10] = target: T4, human alpha-synuclein monomer; experiment: SPR (Biacore), aSyn monomers
[11] = target: T5, human alpha-synuclein oligomers; experiment: SPR; SPR; aSyn oligomers
[12] = target: T3, human alpha-synuclein pre-formed fibrils; experiment: SPR; SPR; aSyn fibrils
[13] = target: T3, human alpha-synuclein pre-formed fibrils; experiment: competition ELISA: fibrils titrated in solution against 0.6 nM antibody, free antibody read on aSyn-coated plate
[14] = target: T6, mouse alpha-synuclein (mouse, UniProt O55042 1-140); experiment: ELISA, coated mouse alpha-synuclein
[15] = target: T6, mouse alpha-synuclein; experiment: direct ELISA, plate coated with 1 µg/mL recombinant mouse alpha-synuclein, antibody titrated, anti-rat HRP, A450
[16] = target: T6, mouse alpha-synuclein; experiment: direct ELISA on coated antigen;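 further: plates coated with recombinant human, mouse or rat alpha-synuclein, purified antibody titrated 10 µg/mL down to 0.6 ng/mL for 1 h, bound antibody detected by anti-rat HRP with TMB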
[17] = target: T4, human alpha-synuclein monomer; experiment: direct ELISA on coated antigen;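 further: plates coated with recombinant human, mouse or rat alpha-synuclein, purified antibody titrated 10 µg/mL down to 0.6 ng/mL for 1 h, bound antibody detected by anti-rat HRP with TMB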
[18] = target: T7, rat alpha-synuclein (rat, UniProt P37377 1-140); experiment: direct ELISA on coated antigen;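 further: plates coated with recombinant human, mouse or rat alpha-synuclein, purified antibody titrated 10 µg/mL down to 0.6 ng/mL for 1 h, bound antibody detected by anti-rat HRP with TMB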
[19] = target: T4, human alpha-synuclein monomer; experiment: ELISA, coated human alpha-synuclein
[20] = target: alpha-synuclein peptide 1-112 (human); experiment: peptide ELISA, coated fragment
[21] = target: T8, alpha-synuclein peptide 61-140 (human); experiment: peptide ELISA, coated fragment
T8 construct: synthetic peptide coated on plate

[22] = target: T9, alpha-synuclein peptide 1-95 (human); experiment: peptide ELISA
T9 construct: synthetic peptide coated on plate

[23] = target: T5, human alpha-synuclein oligomers; experiment: competition ELISA: oligomers titrated in solution against 0.6 nM antibody, free antibody read on aSyn-coated plate
[24] = target: T6, mouse alpha-synuclein; experiment: ELISA, plate coated with the peptide or protein, antibody titrated, anti-rat HRP, A450
[25] = target: alpha-synuclein peptide 1-112 (human); experiment: as above
[26] = target: T2, alpha-synuclein peptide 1-61; experiment: as above; remark: listed apart in the source
[27] = target: T9, alpha-synuclein peptide 1-95; experiment: as above
[28] = target: T10, beta-synuclein protein (human, UniProt Q16143 1-134); experiment: ELISA on coated synuclein, 1 ug/mL
T10 construct: species read from 'recombinant human alpha-synuclein protein, beta-synuclein protein, and gamma-synuclein protein'

[29] = target: T11, gamma-synuclein protein (human, UniProt O76070 1-127); experiment: ELISA on coated synuclein, 1 ug/mL
T11 construct: species read from 'recombinant human alpha-synuclein protein, beta-synuclein protein, and gamma-synuclein protein'

[30] = target: T4, human alpha-synuclein monomer; experiment: SPR (Biacore), antibody captured, monomer injected, 1:1 fit
[31] = target: T1, alpha-synuclein peptide 95-140; experiment: ELISA, plate coated with the peptide or protein, antibody titrated, anti-rat HRP, A450; remark: listed apart in the source
[32] = target: alpha-synuclein peptide 1-112 (human); experiment: as above; remark: listed apart in the source
[33] = target: T2, alpha-synuclein peptide 1-61; experiment: as above; remark: listed apart in the source
[34] = target: T4, human alpha-synuclein monomer; experiment: as above
[35] = target: T8, alpha-synuclein peptide 61-140; experiment: as above
[36] = target: T9, alpha-synuclein peptide 1-95; experiment: as above; remark: listed apart in the source
[37] = target: alpha-synuclein peptide 1-112 (human); experiment: peptide ELISA
[38] = target: alpha-synuclein phosphorylated at serine 129 (human, UniProt P37840 1-140); experiment: SPR (Biacore), antibody captured, p129-Syn injected
[39] = target: T4, human alpha-synuclein monomer; experiment: direct ELISA, plate coated with 1 µg/mL recombinant human alpha-synuclein, antibody titrated, anti-rat HRP, A450
[40] = target: T1, alpha-synuclein peptide 95-140; experiment: ELISA, plate coated with the peptide or protein, antibody titrated, anti-rat HRP, A450; remark: listed apart in the source
[41] = target: T4, human alpha-synuclein monomer; experiment: as above; remark: listed apart in the source
[42] = target: T8, alpha-synuclein peptide 61-140; experiment: as above; remark: listed apart in the source
[43] = target: T7, rat alpha-synuclein; experiment: direct ELISA on coated antigen; upper end tied to 22D11 by Table 6 (2.0 nM rat / 0.03 nM human);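 on Bmax (O.D. at 450 nm): plates coated with recombinant human, mouse or rat alpha-synuclein, purified antibody titrated 10 µg/mL down to 0.6 ng/mL for 1 h, bound antibody detected by anti-rat HRP with TMB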
[44] = target: T7, rat alpha-synuclein; experiment: direct ELISA; member tied to this end by the EC50 values of Table 6 (2.0/0.03)

EC50 (read off the curve) [1]: ~0.3 µg/mL | antibody concentration at which ELISA is positive [3]: < 40 ng/mL | antibody concentration at which ELISA is positive [4]: > 2600 ng/mL
B1: 16F3 (antibody, IgG2a, V domains shown)
VH: AVQLVESGGGLVQPKESLKISCAASGFTFSNGAMNWVRQAPGKGLEWVARIRTKPNNYATYYADSVKGRFTISRDDSKSMVYLQMDDLKTEDTAMYYCTADGATPFAYWGQGTLVTVSS
VL: DVVLTQTPPTLSATIGQSVSISCRSSQSLLHSNGNTYLHWLLQRPGQSPQLLIYLVSRLESGVPNRFSGSGSGTDFTLKISGVEAEDLGVYYCVQGTHAPFTFGSGTKLEIK
notes: also called clone 16F3
binding result [2]: no binding (tested: 10 µg/ml (1 on the log axis))

IC50 [13]: 5.86 nM | binding result [28]: no binding | binding result [29]: no binding | antibody concentration at which ELISA is positive [14]: 640 to 2600 ng/mL | Kd [30]: 16.2 nM | koff [30]: 0.00169 s⁻¹ | kon [30]: 104000 M⁻¹ s⁻¹ | Bmax (O.D. at 450 nm) [16]: 0.16 OD | EC50 [16]: 5.86 nM | Bmax (O.D. at 450 nm) [17]: 1.14 OD | EC50 [17]: 0.15 nM | Bmax (O.D. at 450 nm) [18]: 0.2 OD | EC50 [18]: 2.97 nM | antibody concentration at which ELISA is positive [19]: < 40 ng/mL | EC50 (read off the curve) [31]: ~0.3 µg/mL | EC50 (read off the curve) [34]: ~0.2 µg/mL | EC50 (read off the curve) [35]: ~0.2 µg/mL | antibody concentration at which ELISA is positive [3]: < 40 ng/mL | antibody concentration at which ELISA is positive [21]: < 40 ng/mL | antibody concentration at which ELISA is positive [37]: > 2600 ng/mL | antibody concentration at which ELISA is positive [4]: > 2600 ng/mL | antibody concentration at which ELISA is positive [22]: > 2600 ng/mL | IC50 [23]: 30.7 nM | Kd [38]: 23.7 nM | koff [38]: 0.00113 s⁻¹ | kon [38]: 47500 M⁻¹ s⁻¹ | EC50 (read off the curve) [39]: ~0.2 µg/mL
B4: 1H5 (antibody, rat IgG2b, V domains shown)
VH: AVQLVESGGGLVQPKESLKISCAASGFTFSDAAMYWVRQAPGKGLELVARIRTKPNNYATYYADSVKGRFTISRDDSKSMVYLQMGNLKTEDTAMYYCSADFHYFDYWGQGVMVTVSS
VL: DIQMTQSPSVLSASVGDRVTLSCKAGQNINKNLDWYQQKLGEAPKLLISFTNNLQTGVPSRFSGSGSGSDYTLTISSLQPEDVATYYCYQYNSGWTFGGGTKLELK
notes: also called clone 1H5
binding result [32]: no binding (tested: 10 µg/ml (1 on the log axis)) | binding result [33]: no binding (tested: 10 µg/ml (1 on the log axis)) | binding result [36]: no binding (tested: 10 µg/ml (1 on the log axis))

More lines, now with the values behind:

B2: 20H4_HC5_L1_1 (antibody, V domains shown)
VH: EVQLVESGGGLVQPGGSLRLSCAASGFTFSNAAMYWVRQAPGKGLELLARIRTKPNNYATYHADSVKGRFTISRDDSKNTVYLQMNSLRAEDTAVYYCTADMATGDYWGQGTLVTVSS
VL: DIQMTQSPSSLSASVGDRVTITCKASQNINNNLDWYQQKPGKAPKPLIYSTNNLKTGVPSRFSGSGSGTDFTLTISSLQPEDFATYYCYQYKSAWTFGQGTKVEIK
notes: also called 20H4_H5_L1_1; hu20H4
Kd [5]: 0.000638 nM | Kd [6]: 0.0157 nM | Kd [7]: 0.00886 nM | Kd [8]: 0.12 nM | Kd [9]: 0.1 nM | Kd [10]: 0.21 nM | Kd [11]: 0.19 nM | Kd [12]: 0.27 nM

B3: 22E11 (antibody, IgG1, V domains shown)
VH: AVQLVESGGGLVQPKESLKISCAASGFTFSTAAMYWVRQAPGKGLEWVTRIRTKPNNYATYYADSVKGRFTISRDDSKSMVYLQMDNLKTEDTAMYYCTADYYDGTPFAYWGQGTLVTVSS
VL: AVVMTQTPVSLSVSLGGQVSISCRSSQSLVHNNGITYLSWYLQKPGQSPQLPIYKVSNRFSGFSDRFSGGGSGTDFTLKISRVEPDDLGLYYCGQGTQYPYTFGAGTKLELK
notes: also called clone 22E11
IC50 [13]: 28.1 nM | antibody concentration at which ELISA is positive [14]: 40 to 160 ng/mL | EC50 (read off the curve) [15]: ~0.3 µg/mL | Bmax (O.D. at 450 nm) [16]: 0.58 OD | EC50 [16]: 0.26 nM | Bmax (O.D. at 450 nm) [17]: 1.05 OD | EC50 [17]: 0.4 nM | Bmax (O.D. at 450 nm) [18]: 0.5 OD | EC50 [18]: 1 nM | antibody concentration at which ELISA is positive [19]: < 40 ng/mL | antibody concentration at which ELISA is positive [3]: < 40 ng/mL | antibody concentration at which ELISA is positive [20]: 160 to 640 ng/mL | antibody concentration at which ELISA is positive [21]: < 40 ng/mL | antibody concentration at which ELISA is positive [4]: > 2600 ng/mL | antibody concentration at which ELISA is positive [22]: > 2600 ng/mL | IC50 [23]: 6.96 nM | EC50 (read off the curve) [24]: ~0.3 µg/mL | EC50 (read off the curve) [25]: ~0.3 µg/mL | binding result [26]: no binding (tested: 10 µg/ml (1 on the log axis)) | binding result [27]: no binding (tested: 10 µg/ml (1 on the log axis))

B5: 22D11 (antibody, rat IgG1, V domains shown)
VH: AVQFVESGGGLVRPKESLKISCTASGFTFTNAAIYWVRQAPGKGLECIARIRTKPNNYATYYADSVRGRFTISRDDSKPMVYLQMNELKTEDTAMYYCAADASRGDYWGQGVMVTVSS
VL: B4 VL with L21F, G26S, A43V, L46V, S49Y, V58I, S69T, N92T, W95F, G99A
notes: also called clone 22D11
IC50 [13]: 4.53 nM | binding result [28]: no binding | binding result [29]: no binding | EC50 (read off the curve) [40]: ~0.04 µg/mL | EC50 (read off the curve) [41]: ~0.04 µg/mL | EC50 (read off the curve) [42]: ~0.03 µg/mL | fold higher EC50 for rat alpha-synuclein compared to human alpha-synuclein [43]: 66.7 fold | Kd [30]: 18.1 nM | koff [30]: 0.00337 s⁻¹ | kon [30]: 186000 M⁻¹ s⁻¹ | binding result [15]: no binding (tested: 10 µg/ml (log 1)) | Bmax (O.D. at 450 nm) [17]: 1.2 OD | EC50 [17]: 0.03 nM | Bmax (O.D. at 450 nm) [18]: 0.05 OD | EC50 [18]: 2 nM | antibody concentration at which ELISA is positive [19]: < 40 ng/mL | fold higher EC50 for rat than for human alpha-synuclein [44]: 66.7 fold | antibody concentration at which ELISA is positive [3]: < 40 ng/mL | antibody concentration at which ELISA is positive [21]: < 40 ng/mL | antibody concentration at which ELISA is positive [37]: > 2600 ng/mL | antibody concentration at which ELISA is positive [4]: > 2600 ng/mL | antibody concentration at which ELISA is positive [22]: > 2600 ng/mL | IC50 [23]: 15.2 nM | Kd [38]: 42.9 nM | koff [38]: 0.0035 s⁻¹ | kon [38]: 81600 M⁻¹ s⁻¹ | EC50 (read off the curve) [39]: ~0.04 µg/mL
